Laboratory results published in paper doi:10.1101/509141.
Like-named read-outs stand apart in the source and are kept apart here.

Tests used:
Assay in all cases: BLI
[1] = target: Bacteriophage Sf6, whole virions (bacteriophage Sf6)
[2] = target: Bacteriophage Sf6, whole virions (bacteriophage Sf6); remark: listed apart in the source
[3] = target: Bacteriophage Sf6, whole virions (bacteriophage Sf6); remark: listed apart in the source
[4] = target: Bacteriophage Sf6, whole virions (bacteriophage Sf6); remark: listed apart in the source

Substance: OmpA-TM_(E.coli), transmembrane domain of E. coli outer membrane protein A (domain or fragment)
- Kd [1]: 25 nM

Substance: S. flexneri OmpA-TM N155E (domain or fragment)
- Kd [1]: 6.9 to 65.4 nM

Substance: OmpA-TM_(S.flex), transmembrane domain of S. flexneri outer membrane protein A (domain or fragment)
- Kd [2]: 89.9 nM
- Kd [3]: 99.6 nM
- Kd [4]: 82.3 nM
- Kd [1]: 36 nM
